Changes are numbered by the printed parent chain.
B1: SEQ ID NO 53: stapled scFv (VL3 Y36F_S49Y_F87Y) BHA10 (VH-VL), lower affinity variant (scFv)
scFv: QVQLVQSGAEVKKPGSSVKVSCKASGYTFTTYYLHWVRQAPGCGLEWMGWIYPGNVHAQYNEKFKGRVTITADKSTSTAYMELSSLRSEDTAVYYCARSWEGFPYWGQGTTVTVSSGGGSGGGSGCPPCGGGGDIQMTQSPSSLSASVGDRVTITCKASQNVGINVAWFQQKPGKAPKSLIYSASYRYSGVPSRFSGSGSGTDFTLTISSLQPEDFATYYCQQYDTYPFTFGCGTKVEIK
notes: scFv used in COVA14107
B2: SEQ ID NO 54: stapled scFv (VH_CDR1_Y33A) BHA10 (VH-VL), lower affinity variant (scFv)
scFv: B1 scFv with Y33A, F169Y, Y182S, Y220F
notes: scFv used in COVA14108

Target: LTBR (form used for the KD values not stated) (human, UniProt P36941 31-227, limits assumed)
Sequence (P36941 31-227 limits assumed): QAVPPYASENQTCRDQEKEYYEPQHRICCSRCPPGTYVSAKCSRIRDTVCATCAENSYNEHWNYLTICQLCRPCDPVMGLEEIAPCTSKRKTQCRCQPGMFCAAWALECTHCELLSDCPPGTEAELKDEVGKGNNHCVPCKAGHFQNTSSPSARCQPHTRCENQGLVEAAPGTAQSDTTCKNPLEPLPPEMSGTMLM
Assay: method and format not stated

| Binder | Kd |
| --- | --- |
| B1 | ~60 nM |
| B2 | ~600 nM |

— US20210188990A1 (published 2021)
